The values below come from PMC3905071.

The target in data set [1] is YB-1 (WT) (UniProt P67809 1-324). In words: EMSA and filter binding.
In data set [2] the target is YB-1 (1-219), truncated (UniProt P67809 1-219). Briefly: EMSA and filter binding.
YB-1 (1-219), truncated, sequence (P67809 1-219): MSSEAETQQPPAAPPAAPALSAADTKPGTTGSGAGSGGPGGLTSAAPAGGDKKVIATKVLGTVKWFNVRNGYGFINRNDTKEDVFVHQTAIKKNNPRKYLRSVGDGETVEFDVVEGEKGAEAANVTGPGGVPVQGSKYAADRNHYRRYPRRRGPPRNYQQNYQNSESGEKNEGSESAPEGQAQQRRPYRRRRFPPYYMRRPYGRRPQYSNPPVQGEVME

YB-1 (WT), sequence (P67809 whole entry, the tested form may be a part): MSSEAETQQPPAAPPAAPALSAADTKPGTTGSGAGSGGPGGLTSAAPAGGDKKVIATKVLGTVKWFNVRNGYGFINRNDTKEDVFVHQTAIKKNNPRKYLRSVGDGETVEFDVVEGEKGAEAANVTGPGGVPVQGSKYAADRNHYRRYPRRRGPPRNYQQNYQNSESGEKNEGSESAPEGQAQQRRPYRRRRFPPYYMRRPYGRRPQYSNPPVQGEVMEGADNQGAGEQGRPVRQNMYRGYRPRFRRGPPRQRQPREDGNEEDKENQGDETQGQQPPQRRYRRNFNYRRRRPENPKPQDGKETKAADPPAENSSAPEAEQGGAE

B1: 18-nt Y-box ssDNA (ssDNA)
DNA: AAACTGATTGGCCAAAAA
Consider B1, for which the binding result in data set [1] and in data set [2] was “binds” throughout.
